How the values were obtained:
Assay in all cases: SEC-MALS; SEC-LS (static and dynamic light scattering, refractive index, absorbance at 280 and 550 nm); Shodex KW 802.5 column at 4 °C, 25 mM Tris pH 7.5, 150 mM NaCl, 4 mM CaCl2, 0.5 mL/min; 50 µL injected
[1] = molecular target: DC-SIGNR Fc-CRD (fusion of the DC-SIGNR CRD with human IgG1 Fc) (human)
[2] = molecular target: T1, Cy3-NeutrAvidin (UniProt P02701 25-152, Cy3 (Cy3-NHS ester, degree of labelling 0.5)); conditions: both partners purified
T1 construct: NeutrAvidin, a deglycosylated tetrameric protein derived from avidin; subunit MW = 14.5 kDa as printed; Deglycosylated avidin; also called NeutrAvidin-Cy3; tetrameric NeutrAvidin; source: bought: ThermoFisher Scientific; labelled with Cy3-NHS ester
T1 sequence (P02701 25-152): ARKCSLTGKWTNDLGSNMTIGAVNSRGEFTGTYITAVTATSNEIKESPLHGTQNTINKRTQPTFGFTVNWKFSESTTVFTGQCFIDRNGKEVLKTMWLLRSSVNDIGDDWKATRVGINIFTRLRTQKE

[3] = molecular target: the molecule itself

## DC-SIGNR Fc-CRD (fusion of the DC-SIGNR CRD with human IgG1 Fc) (Fc fusion)
[1]
  stoichiometry N: 2

B1: Biotin sortagged DC-SIGNR-CRD (biotin-LPRT-GGG-DC-SIGNR CRD) (domain or fragment, human)
chain: LPRTGGGLCRHCPKDWTFFQGNCYFMSNSQRNWHDSVTACQEVRAQLVVIKTAEEQNFLQLQTSRSNRFSWMGLSDLNQEGTWQWVDGSPLSPSFQRYWNSGEPNNSGNEDCAEFSGSGWNDNRCDVDNYWICKKPAACFRDE
modifications: biotin on the N-terminus (biotin-LPRT peptide joined by sortase A)
notes: sortase A motif of the biotin-LPRT-OMe peptide, transferred onto the N-terminal glycines; poly-Gly extension at the N-terminus of the CRD, exposed after factor Xa cleavage; DC-SIGNR (L-SIGN), human, CRD, amino acids 264 to 399; optimized synthetic gene in pET30-b between XbaI and HindIII; Theoretical mass 16.5 kDa (ESI-MS 16,556); also called biotin-CRD; biotinylated DC-SIGNR CRD; source: …
[2]
  stoichiometry N: 4 biotin-CRD per NeutrAvidin tetramer (4:4 by chains)

B2: DC-SIGNR ECD (natural extracellular domain of human DC-SIGNR) (domain or fragment, UniProt Q9H2X3 78-399, looked up)
chain: SLSQEQSEQDAIYQNLTQLKAAVGELSEKSKLQEIYQELTQLKAAVGELPEKSKLQEIYQELTRLKAAVGELPEKSKLQEIYQELTRLKAAVGELPEKSKLQEIYQELTRLKAAVGELPEKSKLQEIYQELTELKAAVGELPEKSKLQEIYQELTQLKAAVGELPDQSKQQQIYQELTDLKTAFERLCRHCPKDWTFFQGNCYFMSNSQRNWHDSVTACQEVRAQLVVIKTAEEQNFLQLQTSRSNRFSWMGLSDLNQEGTWQWVDGSPLSPSFQRYWNSGEPNNSGNEDCAEFSGSGWNDNRCDVDNYWICKKPAACFRDE
notes: DC-SIGNR (L-SIGN), human, extracellular domain, amino acids 78 to 399; optimized synthetic gene in pET30-b between NdeI and HindIII; also called natural tetrameric DC-SIGNR ECD; L-SIGN ECD
[3]
  stoichiometry N: 4

From paper PMC7432041, “[…], Artificial Tetrameric Lectins: A Tool to Screen Ligand and Pathogen Interactions” (International Journal of Molecular Sciences, 2020)
